Laboratory results from IntAct's records for PubMed 26471729.

B1: Antiviral innate immune response receptor RIG-I (Homo sapiens), O95786 (parent)
chain: MTTEQRRSLQAFQDYIRKTLDPTYILSYMAPWFREEEVQYIQAEKNNKGPMEAATLFLKFLLELQEEGWFRGFLDALDHAGYSGLYEAIESWDFKKIEKLEEYRLLLKRLQPEFKTRIIPTDIISDLSECLINQECEEILQICSTKGMMAGAEKLVECLLRSDKENWPKTLKLALEKERNKFSELWIVEKGIKDVETEDLEDKMETSDIQIFYQEDPECQNLSENSCPPSEVSDTNLYSPFKPRNYQLELALPAMKGKNTIICAPTGCGKTFVSLLICEHHLKKFPQGQKGKVVFFANQIPVYEQQKSVFSKYFERHGYRVTGISGATAENVPVEQIVENNDIIILTPQILVNNLKKGTIPSLSIFTLMIFDECHNTSKQHPYNMIMFNYLDQKLGGSSGPLPQVIGLTASVGVGDAKNTDEALDYICKLCASLDASVIATVKHNLEELEQVVYKPQKFFRKVESRISDKFKYIIAQLMRDTESLAKRICKDLENLSQIQNREFGTQKYEQWIVTVQKACMVFQMPDKDEESRICKALFLYTSHLRKYNDALIISEHARMKDALDYLKDFFSNVRAAGFDEIEQDLTQRFEEKLQELESVSRDPSNENPKLEDLCFILQEEYHLNPETITILFVKTRALVDALKNWIEGNPKLSFLKPGILTGRGKTNQNTGMTLPAQKCILDAFKASGDHNILIATSVADEGIDIAQCNLVILYEYVGNVIKMIQTRGRGRARGSKCFLLTSNAGVIEKEQINMYKEKMMNDSILRLQTWDEAVFREKILHIQTHEKFIRDSQEKPKPVPDKENKKLLCRKCKALACYTADVRVIEECHYTVLGDAFKECFVSRPHPKPKQFSSFEKRAKIFCARQNCSHDWGIHVKYKTFEIPVIKIESFVVEDIATGVQTLYSKWKDFHFEKIPFDPAEMSK
partner: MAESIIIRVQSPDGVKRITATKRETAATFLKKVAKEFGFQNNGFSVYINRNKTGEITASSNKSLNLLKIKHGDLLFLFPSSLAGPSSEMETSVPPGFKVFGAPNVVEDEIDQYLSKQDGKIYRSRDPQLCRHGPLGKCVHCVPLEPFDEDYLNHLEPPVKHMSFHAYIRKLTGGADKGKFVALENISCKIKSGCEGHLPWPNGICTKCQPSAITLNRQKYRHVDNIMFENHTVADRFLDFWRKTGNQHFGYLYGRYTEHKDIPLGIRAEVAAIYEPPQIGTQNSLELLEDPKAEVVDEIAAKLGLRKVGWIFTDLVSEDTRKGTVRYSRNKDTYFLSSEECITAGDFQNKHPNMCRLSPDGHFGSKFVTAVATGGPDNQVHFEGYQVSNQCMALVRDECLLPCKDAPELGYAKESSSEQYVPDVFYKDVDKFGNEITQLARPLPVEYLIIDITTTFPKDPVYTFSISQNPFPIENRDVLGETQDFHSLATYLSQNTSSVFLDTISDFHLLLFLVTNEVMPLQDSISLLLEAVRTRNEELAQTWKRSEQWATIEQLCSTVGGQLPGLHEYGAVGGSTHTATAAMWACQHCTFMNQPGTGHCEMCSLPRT

Variants of: B1
Conditions: with npl4_human NPLOC4, Q8TAT6

Variant	effect of a mutation on the interaction
T170E;K172R	decreasing interaction strength
K172R	decreasing interaction strength
K181R	with no effect
